Assay results: patent publication US10702592B2, “Peptides and combination of peptides for use in immunotherapy against NHL and other cancers” (Immatics Biotechnologies GmbH, priority 2016, dated 2020)

How the values were obtained:
[1] = target: HLA-A*02:01 (Homo sapiens, UniProt P04439, D140Y/D185E/D98H/E176V/E277Q/G131W/G231S/I119V/I121R/I166T/I218V/L300P/L318F/N151K/N90K/P208A/P217A/Q86G/Q94H/R138H/R169H/T345S); experiment: MHC binding assay (UV-ligand exchange, beta2m ELISA); conditions: binding to HLA-A*02:01, UV-ligand exchange
Method in brief: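 UV-exchange pMHC monomers, 100-fold diluted → streptavidin capture 1 h 37 °C → HRP anti-β2m 2 ug/ml 1 h 37 °C → TMB, A450. Yield from HLA-A*02:01/MLA-001 monomer standard curve, 15-500 ng/ml. Only stably bound peptides keep β2m-containing complexes intact.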

[2] = tested on: CD8+ T cells; experiment: In vitro T-cell priming immunogenicity assay (aAPC with pMHC and anti-CD28, multimer staining); format: cell-based, human; conditions: HLA-A*02 restricted peptides; percentage of positive wells and donors (among evaluable)
Source text: In order to obtain information regarding the immunogenicity of the TUMAPs of the present invention, the inventors performed investigations using an in vitro T-cell priming assay based on repeated stimulations of CD8+ T cells with artificial antigen presenting cells (aAPCs) loaded with peptide/MHC complexes and anti-CD28 antibody.
In order to perform in vitro stimulations by artificial antigen presenting cells loaded with peptide-MHC complex (pMHC) and anti-CD28 antibody, the inventors first isolated CD8+ T cells from fresh HLA-A*02 leukapheresis products via positive selection using CD8 microbeads (Miltenyi Biotec, Bergisch-Gladbach, Germany) of healthy donors obtained from the University clinics Mannheim, Germany, after informed consent.
PBMCs and isolated CD8+ lymphocytes were incubated in T-cell medium (TCM) until use consisting of RPMI-Glutamax (Invitrogen, Karlsruhe, Germany) supplemented with 10% heat inactivated human AB serum (PAN-Biotech, Aidenbach, Germany), 100 U/ml Penicillin/100 μg/ml Streptomycin (Cambrex, Cologne, Germany), 1 mM sodium pyruvate (CC Pro, Oberdorla, Germany), 20 μg/ml Gentamycin (Cambrex). 2.5 ng/ml IL-7 (PromoCell, Heidelberg, Germany) and 10 U/ml IL-2 (Novartis Pharma, Nurnberg, Germany) were also added to the TCM at this step.
Generation of pMHC/anti-CD28 coated beads, T-cell stimulations and readout was performed in a highly defined in vitro system using four different pMHC molecules per stimulation condition and 8 different pMHC molecules per readout condition.
The purified co-stimulatory mouse IgG2a anti human CD28 Ab 9.3 (Jung et al., 1987) was chemically biotinylated using Sulfo-N-hydroxysuccinimidobiotin as recommended by the manufacturer (Perbio, Bonn, Germany). Beads used were 5.6 μm diameter streptavidin coated polystyrene particles (Bangs Laboratories, Illinois, USA).
800.000 beads/200 μl were coated in 96-well plates in the presence of 4×12.5 ng different biotin-pMHC, washed and 600 ng biotin anti-CD28 were added subsequently in a volume of 200 μl. Stimulations were initiated in 96-well plates by co-incubating 1×10^6 CD8+ T cells with 2×10^5 washed coated beads in 200 μl TCM supplemented with 5 ng/ml IL-12 (PromoCell) for 3 days at 37° C. Half of the medium was then exchanged by fresh TCM supplemented with 80 U/ml IL-2 and incubating was continued for 4 days at 37° C. This stimulation cycle was performed for a total of three times. For the pMHC multimer readout using 8 different pMHC molecules per condition, a two-dimensional combinatorial coding approach was used as previously described (Andersen et al., 2012) with minor modifications encompassing coupling to 5 different fluorochromes. Finally, multimeric analyses were performed by staining the cells with Live/dead near IR dye (Invitrogen, Karlsruhe, Germany), CD8-FITC antibody clone SK1 (BD, Heidelberg, Germany) and fluorescent pMHC multimers. For analysis, a BD LSRII SORP cytometer equipped with appropriate lasers and filters was used. Peptide specific cells were calculated as percentage of total CD8+ cells. Evaluation of multimeric analysis was done using the FlowJo software (Tree Star, Oregon, USA). In vitro priming of specific multimer+CD8+ lymphocytes was detected by comparing to negative control stimulations.

Row | Substance | Peptide exchange (MHC class I binding score, peptide exchange yield) [1] | Wells positive [%] [2]
1 | 5 (VLQGLTFTL; listed as Homo sapiens) [compound 5] | “+++” (≥50 = +++) | “+++” (50% - 69% = +++)
2 | 7 (NLLGMIFSM; listed as Homo sapiens) [compound 7] | “++++” (≥75% = ++++) | “++++” (≥70% = ++++)
3 | 8 (ALYAVIEKA; listed as Homo sapiens) [compound 8] | “+++” (≥50 = +++) | “+” (<20% = +)
4 | 9 (FLLDLDPLL; listed as Homo sapiens) [compound 9] | “+++” (≥50 = +++) | “++” (20% - 49% = ++)
5 | 12 (GLLLLVPLL; listed as Homo sapiens) [compound 12] | “+++” (≥50 = +++) | “+++” (50% - 69% = +++)
6 | 13 (HLVPASWKL; listed as Homo sapiens) [compound 13] | “+++” (≥50 = +++) | “+++” (50% - 69% = +++)
7 | 17 (VIIPLLSSV; listed as Homo sapiens) [compound 17] | “+++” (≥50 = +++) | “++” (20% - 49% = ++)
8 | 19 (VLEAILPLV; listed as Homo sapiens) [compound 19] | “++++” (≥75% = ++++) | “+” (<20% = +)
9 | 21 (ALFKEAYSL; listed as Homo sapiens) [compound 21] | “+++” (≥50 = +++) | “+” (<20% = +)
10 | 22 (ALKKHLTSV; listed as Homo sapiens) [compound 22] | “+++” (≥50 = +++) | “++++” (≥70% = ++++)
11 | 24 (AVLGFSFRL; listed as Homo sapiens) [compound 24] | “+++” (≥50 = +++) | “++++” (≥70% = ++++)
12 | 25 (FLDTSNQHLL; listed as Homo sapiens) [compound 25] | “+++” (≥50 = +++) | “+” (<20% = +)
13 | 26 (FLGSFIDHV; listed as Homo sapiens) [compound 26] | “+++” (≥50 = +++) | “+” (<20% = +)
14 | 27 (FLNQESFDL; listed as Homo sapiens) [compound 27] | “+++” (≥50 = +++) | “+” (<20% = +)
15 | 28 (FLSNANPSL; listed as Homo sapiens) [compound 28] | “+++” (≥50 = +++) | “++++” (≥70% = ++++)
16 | 29 (ILSDVTQGL; listed as Homo sapiens) [compound 29] | “+++” (≥50 = +++) | “+” (<20% = +)
17 | 30 (ILSTLDVEL; listed as Homo sapiens) [compound 30] | “+++” (≥50 = +++) | “++” (20% - 49% = ++)
18 | 33 (LLANIVPIAMLV; listed as Homo sapiens) [compound 33] | “++++” (≥75% = ++++) | “+” (<20% = +)
19 | 35 (SLSSERYYL; listed as Homo sapiens) [compound 35] | “+++” (≥50 = +++) | “++++” (≥70% = ++++)
20 | 36 (VILDIPLLFET; listed as Homo sapiens) [compound 36] | “+++” (≥50 = +++) | “++” (20% - 49% = ++)

Row | Substance | Peptide exchange (MHC class I binding score, peptide exchange yield) [1] | Wells positive [%] [2]
21 | 37 (VLGNALEGV; listed as Homo sapiens) [compound 37] | “+++” (≥50 = +++) | “+” (<20% = +)
22 | 40 (FLNSVIVDL; listed as Homo sapiens) [compound 40] | “++++” (≥75% = ++++) | “+++” (50% - 69% = +++)
23 | 41 (ILASIFETV; listed as Homo sapiens) [compound 41] | “++++” (≥75% = ++++) | “+++” (50% - 69% = +++)
24 | 42 (YLQDLVERA; listed as Homo sapiens) [compound 42] | “++++” (≥75% = ++++) | “+++” (50% - 69% = +++)
25 | 43 (ALLEGVKNV; listed as Homo sapiens) [compound 43] | “+++” (≥50 = +++) | “++” (20% - 49% = ++)
26 | 44 (FIIEEQSFL; listed as Homo sapiens) [compound 44] | “+++” (≥50 = +++) | “+” (<20% = +)
27 | 46 (FLVEEIFQT; listed as Homo sapiens) [compound 46] | “+++” (≥50 = +++) | “+” (<20% = +)
28 | 47 (GLLPKLTAL; listed as Homo sapiens) [compound 47] | “+++” (≥50 = +++) | “++” (20% - 49% = ++)
29 | 51 (SLLGNSPVL; listed as Homo sapiens) [compound 51] | “++++” (≥75% = ++++) | “+++” (50% - 69% = +++)
30 | 52 (VLLEDVDAAFL; listed as Homo sapiens) [compound 52] | “++++” (≥75% = ++++) | “+” (<20% = +)
31 | 53 (FLREYFERL; listed as Homo sapiens) [compound 53] | “++++” (≥75% = ++++) | “+++” (50% - 69% = +++)
32 | 57 (LQIGDFVSV; listed as Homo sapiens) [compound 57] | “++++” (≥75% = ++++) | “++++” (≥70% = ++++)
33 | 59 (RLHREVAQV; listed as Homo sapiens) [compound 59] | “+++” (≥50 = +++) | “+” (<20% = +)
34 | 60 (SLLIDVITV; listed as Homo sapiens) [compound 60] | “+++” (≥50 = +++) | “+++” (50% - 69% = +++)
35 | 61 (SLLNKDLSL; listed as Homo sapiens) [compound 61] | “++++” (≥75% = ++++) | “+” (<20% = +)
36 | 62 (ALAPYLDLL; listed as Homo sapiens) [compound 62] | “++++” (≥75% = ++++) | “++” (20% - 49% = ++)
37 | 66 (KLAPIPVEL; listed as Homo sapiens) [compound 66] | “++++” (≥75% = ++++) | “++” (20% - 49% = ++)
38 | 67 (LLATVNVAL; listed as Homo sapiens) [compound 67] | “++++” (≥75% = ++++) | “+” (<20% = +)
39 | 68 (QIAAFLFTV; listed as Homo sapiens) [compound 68] | “++++” (≥75% = ++++) | “+++” (50% - 69% = +++)
